Results published in the RNAGym collection of RNA variant scans (doi:10.1093/molbev/msab373).

B1: Azoarcus group I ribozyme (parent)
chain: GUGCCUUGCGCCGGGAAACCACGCAAGGGAUGGUGUCAAAUUCGGCGAAACCUAAGCGCCCGCCCGGGCGUAUGGCAACGCCGAGCCAAGCUUCGGCGCCUGCGCCGAUGAAGGUGUAGAGACUAGACGGCACCCACCUAAGGCAAACGCUAUGGUGAAGGCAUAGUCCAGGGAGUGGCGAAAGUCACACAAACCGG

Variants of: B1
Assay: reverse-splicing fitness (ratio to wild type); higher = more active; in vitro selection; Mg2+ level not given
In short: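 An in vitro group I ribozyme library with randomized positions was T7-transcribed and gel-purified. In triplicate, 10 pmol RNA in EPPS pH 7.5 was reacted with 50 pmoles of a 30-nt RNA substrate for 1 h at 37 °C across several added MgCl2 levels (1–48 mM), then stopped with EDTA. Products were reverse transcribed from a substrate-complementary primer, PCR-amplified and sequenced (HiSeq 4000). Fitness is a variant's read proportion after selection over that before, normalised to wild type.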

| Variant | reverse-splicing fitness |
| --- | --- |
| C82A A111G A120C A145U C150U C169G | 0.00921 |
| C82A A111G A120C A145U C150U C169U | 0.0117 |
| C82A A111G A120C A145U C150U C169A | 0.0102 |
| C82A A111G A120C A145G C150A U176A | 0.0133 |
| C82A A111G A120C A145G C150A U176G | 0.0103 |
| C82A A111G A120C A145G C150A U176C | 0.0253 |
| C82A A111G A120C C150A C169A | 0.0113 |
| C82A A111G A120C C150A C169U | 0.011 |
| C82A A111G A120C C150A C169G | 0.00973 |
| C82A A111G A120C A145U C169A U176C | 0.0152 |
| C82A A111G A120C A145U C169A U176G | 0.00526 |
| C82A A111G A120C A145U C169A U176A | 0.0138 |
| C82A A111C U176C | 0.102 |
| C82A A111C U176A | 0.0824 |
| C82A A111C U176G | 0.0172 |
| C82A A111G A120C A145U C150U C169G U176C | 0.0191 |
| C82A A111G A120C A145U C150U C169G U176G | 0.00539 |
| C82A A111G A120C A145U C150U C169G U176A | 0.0145 |
| C82A A111C C150A C169A U176C | 0.0237 |
| C82A A111C C150A C169A U176G | 0.00857 |
| C82A A111C C150A C169A U176A | 0.0188 |

| Variant | reverse-splicing fitness |
| --- | --- |
| C82A A111G A120C | 0.0449 |
| C82A A111G A120G | 0.0164 |
| C82A A111G A120C A145G C150A C169A U176A | 0.019 |
| C82A A111G A120C A145G C150A C169A U176G | 0.00941 |
| C82A A111G A120C A145G C150A C169A U176C | 0.0211 |
| C82A A111G A120C C150G C169A U176G | 0.00791 |
| C82A A111G A120C C150G C169A U176C | 0.0139 |
| C82A A111G A120C C150G C169A U176A | 0.0116 |
| C82A A111G A120C C150A | 0.0162 |
| C82A A111G A120C C150U | 0.0279 |
| C82A A111G A120C C150G | 0.0106 |
| C82A A111G A120C A145U C150G C169G U176C | 0.00564 |
| C82A A111G A120C A145U C150G C169G U176A | 0.00801 |
| C82A A111G A120C A145U C150G C169G U176G | 0.00589 |
| C82A A111G A120C A145U C150G C169U | 0.00884 |
| C82A A111G A120C A145U C150G C169A | 0.00895 |
| C82A A111G A120C A145U C150G C169G | 0.0075 |
| C82A A111G A120C C150G C169U | 0.00991 |
| C82A A111G A120C C150G C169G | 0.00727 |
| C82A A111G A120C C150G C169A | 0.00992 |
| C82A A111G A120C C150U C169G U176C | 0.0203 |

| Variant | reverse-splicing fitness |
| --- | --- |
| C82A A111G A120C C150U C169G U176G | 0.00643 |
| C82A A111G A120C C150U C169G U176A | 0.0173 |
| C82A A111G A120C A145G C169A | 0.0112 |
| C82A A111G A120C A145G C169G | 0.00928 |
| C82A A111G A120C A145G C169U | 0.013 |
| C82A A111G A120C A145G C169G U176G | 0.0054 |
| C82A A111G A120C A145G C169G U176C | 0.0275 |
| C82A A111G A120C A145G C169G U176A | 0.0216 |
| C82A A111C C150G U176C | 0.0124 |
| C82A A111C C150G U176G | 0.00364 |
| C82A A111C C150G U176A | 0.0084 |
| C82A A111C C150A C169U | 0.0131 |
| C82A A111C C150A C169A | 0.00979 |
| C82A A111C C150A C169G | 0.00835 |
| C82A A111G A120C C150G U176A | 0.0064 |
| C82A A111G A120C C150G U176C | 0.00892 |
| C82A A111G A120C C150G U176G | 0.00391 |
| C82A A111G A120C A145C C150G C169G U176C | 0.00812 |
| C82A A111G A120C A145C C150G C169G U176G | 0.00568 |
| C82A A111G A120C A145C C150G C169G U176A | 0.00979 |
| C82A A111G A120C A145C C169G U176C | 0.0238 |

| Variant | reverse-splicing fitness |
| --- | --- |
| C82A A111G A120C A145C C169G U176G | 0.00569 |
| C82A A111G A120C A145C C169G U176A | 0.0285 |
| C82A A111G A120C A145C C150A C169G U176A | 0.0288 |
| C82A A111G A120C A145C C150A C169G U176C | 0.025 |
| C82A A111G A120C A145C C150A C169G U176G | 0.00763 |
| C82A A111C C150A C169G U176C | 0.0222 |
| C82A A111C C150A C169G U176G | 0.00951 |
| C82A A111C C150A C169G U176A | 0.0151 |
| C82A A111G A120C A145G C150A C169U | 0.00999 |
| C82A A111G A120C A145G C150A C169G | 0.00915 |
| C82A A111G A120C A145G C150A C169A | 0.0119 |
| C82A A111G A120C A145U C169G U176A | 0.0135 |
| C82A A111G A120C A145U C169G U176G | 0.00526 |
| C82A A111G A120C A145U C169G U176C | 0.0172 |
| C82A A111G A120C A145G C150A | 0.0137 |
| C82A A111G A120C A145G C150G | 0.0105 |
| C82A A111G A120C A145G C150U | 0.0349 |
| C82A A111G A120C A145G C150G U176G | 0.00593 |
| C82A A111G A120C A145G C150G U176A | 0.00873 |
| C82A A111G A120C A145G C150G U176C | 0.0121 |
